Experimental data taken from patent publication US20160264664A1.
“And” between values parts separate entries of the source, which are not always exact repeats. Equal values may be shown once.

Columns and labels:
[1] = target: human chemokine receptor CXCR4 (human) (UniProt P61073); assay: flow cytometry, pVAX1-hCXCR4 transfected HEK293 vs non-transfected HEK293 cells
[2] = target: human chemokine receptor CXCR4 (human) (UniProt P61073); assay: flow cytometry, 12G5 then PE goat anti-mouse IgG, on the stable CAKI/CXCR4 clone; the control panel CAKI WT prints MCF:1089
[3] = target: human chemokine receptor CXCR4 (human) (UniProt P61073); assay: flow cytometry, stable CXCR4 CAKI clone vs CAKI WT cells
[4] = target: human chemokine receptor CXCR4 (human) (UniProt P61073); assay: flow cytometry, 12G5 then PE goat anti-mouse IgG, on HEK293 cells transiently transfected with pVAX1-CXCR4; the control panel HEK293 WT prints MCF:3918
mouse P2X7 (mouse) [5] = target: T1, mouse P2X7 (mouse) (UniProt Q9Z1M0); assay: flow cytometry, purified Nanobody titrated on mP2X7-CHO cells
T1 sequence: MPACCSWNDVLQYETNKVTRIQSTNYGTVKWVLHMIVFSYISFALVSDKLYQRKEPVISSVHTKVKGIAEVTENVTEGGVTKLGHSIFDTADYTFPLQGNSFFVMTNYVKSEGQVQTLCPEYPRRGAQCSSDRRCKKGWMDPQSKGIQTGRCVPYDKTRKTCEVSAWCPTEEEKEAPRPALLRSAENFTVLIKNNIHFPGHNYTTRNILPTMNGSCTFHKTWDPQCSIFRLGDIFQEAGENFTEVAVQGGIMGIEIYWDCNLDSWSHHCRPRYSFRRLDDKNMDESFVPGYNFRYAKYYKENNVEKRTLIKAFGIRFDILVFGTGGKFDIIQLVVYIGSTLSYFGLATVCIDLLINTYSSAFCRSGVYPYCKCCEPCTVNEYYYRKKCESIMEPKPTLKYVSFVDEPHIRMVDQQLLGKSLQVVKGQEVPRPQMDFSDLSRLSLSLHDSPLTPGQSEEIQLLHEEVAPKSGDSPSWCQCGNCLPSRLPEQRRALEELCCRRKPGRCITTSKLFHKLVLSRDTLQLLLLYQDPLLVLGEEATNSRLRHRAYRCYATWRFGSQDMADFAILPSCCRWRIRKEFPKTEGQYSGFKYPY

[6] = target: human chemokine receptor CXCR4 (human) (UniProt P61073); assay: ELISA, periplasmic extract on CXCR4 membrane vesicles, anti-Myc detection
mouse P2X7 (mouse) [7] = target: T1, mouse P2X7 (mouse); assay: cell-based or functional assay

Sequence of human chemokine receptor CXCR4 (human) (P61073 whole entry): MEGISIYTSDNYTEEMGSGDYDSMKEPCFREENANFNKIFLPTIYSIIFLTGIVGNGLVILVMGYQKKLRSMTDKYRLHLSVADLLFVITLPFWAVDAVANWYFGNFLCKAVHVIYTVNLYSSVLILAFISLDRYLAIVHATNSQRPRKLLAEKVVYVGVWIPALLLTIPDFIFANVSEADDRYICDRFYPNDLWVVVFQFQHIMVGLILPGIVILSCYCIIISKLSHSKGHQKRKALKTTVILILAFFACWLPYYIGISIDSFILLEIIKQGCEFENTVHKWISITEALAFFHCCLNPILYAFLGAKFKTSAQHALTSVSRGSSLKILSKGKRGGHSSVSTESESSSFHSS

Row | Substance | fluorescence intensity shift of transfected over non-transfected cells [1] [fold] | MCF [2] | fluorescence shift over non-transfected camelid cells [3] [fold] | MCF [4] | maximum MCF value (mouse P2X7 (mouse) [5]) [MCF] | ELISA signal on hCXCR4 membrane vesicles over control membrane vesicles [6] | percentage of cells remaining CD62L positive after ATP or NAD (Yac-1 cells, control) (mouse P2X7 (mouse) [7])
1 | Human CXCR4 specific monoclonal antibody 12G5 (R&D Systems MAB170) | 38 | 125000 | 114 | 152000 |  |  | 
2 | irrelevant control Nanobody (VHH) |  |  |  |  | 314 to 355 | 1.1 | 2% and 20%
